Results from the supplement of paper PMC10567573.

B1: WEE1 (parent)
chain: FLGSSFSPVRCGGPGDASPRGCGA

Variants of: B1
Assay: protein stability index of a GFP-peptide fusion (GPS, HEK-293T) (PSI 1-6); higher = more stable
Conditions: c terminus: a fixed tail appended
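Further: lentivirally expressed fusions sorted by FACS into six bins by GFP to DsRed ratio, PSI derived from sequencing read proportions per bin multiplied by bin number.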

Protein stability index: each site, then its substitutions
S5: G 1.91 | H 1.73 | M 2.27 | R 1.63 | A 1.98 | D 2.37 | I 1.92 | K 1.8 | F 4.63 | N 1.92 | V 1.39 | Y 2.51 | L 2.13 | Q 1.58 | P 2.17 | T 1.59 | E 1.52
L2: Q 1.85 | W 2.35 | M 2.07 | S 3.18 | T 1.6 | K 3.1 | R 3.13 | N 2.45 | H 2.02 | Y 2.19 | P 2.04
V9: H 2.22 | C 3.15 | D 2.58 | S 1.88 | E 2.79 | T 1.88 | Y 1.25 | G 2.25 | I 1.8 | Q 1.76 | A 2.11 | L 1.1 | N 2.51 | M 2.69 | P 2.58 | R 2.39 | W 2.19 | K 1.93
R20: G 1.36 | H 1.33 | D 2.17 | K 1.62 | A 2.27 | I 1.23 | E 2.28
G15: V 1.65 | S 2.02 | D 2.06 | I 1.82 | T 2.25 | H 1.76 | P 1.75 | W 3.02 | A 2.45 | N 1.77 | M 1.88 | R 1.56 | Q 1.45 | Y 2.37 | K 1.93 | F 2.6 | C 1.25 | L 2.68 | E 1.59
G13: L 2.58 | R 1.87 | V 2.05 | A 1.94 | Y 1.63 | N 2.38 | S 2.29 | T 1.55 | I 2.43 | Q 2.98 | W 1.56 | K 2.29 | M 1.58 | E 1.52 | F 1.51 | H 1.87 | D 1.57 | P 2.12 | C 2.58
P14: S 2.24 | A 1.45 | N 1.85 | R 2.35 | C 2.18 | W 1.94 | Y 2.42 | G 2.04 | E 2.22 | F 3.56 | L 1.59 | Q 2.42 | I 2.29 | H 1.86 | D 1.9 | M 1.17 | K 2.81 | V 1.35 | T 1.15
F6: Y 1.81 | D 3.42 | P 3.52 | I 3.26 | L 2.84 | M 3.29 | E 3.91 | K 3 | C 3.15 | R 2.95 | V 2.15 | H 2.48 | A 2.17 | Q 3.41 | G 3.36 | T 2.76 | N 3.06 | S 2.87
P19: E 2.14 | I 1.57 | H 1.25 | Y 1.12 | L 2.31 | C 1.98 | F 2.62 | G 2 | W 2.52 | K 1.93 | N 2.45 | D 2 | Q 1.57 | T 1.88 | S 1.8 | A 2.78 | V 2.23 | M 1.35 | R 2.38
G3: R 2.34 | I 2.82 | Q 2.33 | C 1.91 | N 1.32 | K 2.16 | F 2.67 | L 1.65 | D 2.02 | Y 1.91 | A 2.19 | T 1.48 | W 2.79 | S 1.92 | M 1.68 | P 2.12 | V 2.51 | H 2.85 | E 2.58
C11: E 2.39 | R 2.69 | V 1.95 | N 2.53 | T 2.27 | S 2.62 | Q 2.48 | I 2.12 | M 2.4 | F 2.19 | K 1.91 | W 1.46 | L 2.22 | D 3.3 | Y 2.01 | P 2.44 | H 2.1 | A 2.78 | G 2.34
S4: L 1.48 | Y 1.75 | D 2.39 | T 1.56 | P 1.82 | M 2.06 | A 1.79 | E 2.65 | I 2.49 | H 1.24 | G 2.16 | F 1.93 | R 1.69 | N 2.07 | K 2.34 | Q 1.86 | V 1.46 | C 2.19
S18: E 2.15 | P 2.89 | V 2.09 | D 2.16 | H 1.83 | M 1.62 | A 1.71 | N 1.84 | L 2 | C 1.86 | Y 1.65 | W 2.3 | I 1.75 | F 1.86 | R 1.68 | K 2.07 | Q 1.96 | T 1.42 | G 1.98
D16: W 1.74 | S 2.09 | N 1.39 | I 1.61 | F 2.35 | C 2.57 | Y 1.23 | P 1.73 | H 2.27 | R 2.06 | K 1.81 | Q 1.86 | G 1.99 | M 2.45 | E 1.93 | T 1.57 | L 1.88 | V 1.91 | A 1.26
A17: K 1.53 | H 1.8 | F 1.54 | P 2.31 | C 2.06 | Y 1.95 | N 1.99 | Q 1.53 | G 2.07 | R 2.21 | V 1.47 | I 1.87 | E 1.95 | W 2.29 | D 2.34 | T 1.4 | M 1.56 | S 1.39 | L 1.78
P8: N 2.05 | D 1.97 | V 1.97 | M 1.85 | H 1.71 | Y 1.78 | W 2.83 | Q 1.64 | I 1.23 | F 2.49 | R 1.48 | E 2.23 | T 1.43 | G 1.81 | S 2.51 | L 2.15 | K 1.66 | A 1.38
R10: I 2.25 | L 2.52 | H 2.63 | T 2.25 | P 2.04 | V 2 | W 4.78 | G 1.42 | C 1.73 | M 1.64 | D 2.68 | N 2.33 | F 2.95 | E 3.27 | K 2.68 | S 1.8 | Y 1.07 | Q 1.84 | A 1.83
S7: M 2.48 | H 1.81 | R 2.38 | F 1.12 | Q 1.93 | I 2.34 | G 2.73 | P 1.36 | L 1.48 | E 2.5 | A 1.4 | D 3.47 | K 2.47 | Y 2.16 | C 2.41 | N 2.22 | V 1.03 | T 2.9
G12: M 1.83 | R 2.1 | F 1.43 | H 3.11 | L 2.44 | N 2.56 | D 1.85 | T 1.63 | C 2.04 | A 1.78 | P 2.38 | I 1.3 | Y 2.65 | W 1.9 | V 1.43 | E 2.03 | K 2.31 | S 2 | Q 2.07
